The source of these data is US20190202912A1 (NEXTCURE, published 2019).

This assay concerns the target T1, S15-extra cellular domain (ECD) monomer (human, UniProt Q6ZMC9 20-263).
T1 construct: also called S15 monomer protein
T1 sequence: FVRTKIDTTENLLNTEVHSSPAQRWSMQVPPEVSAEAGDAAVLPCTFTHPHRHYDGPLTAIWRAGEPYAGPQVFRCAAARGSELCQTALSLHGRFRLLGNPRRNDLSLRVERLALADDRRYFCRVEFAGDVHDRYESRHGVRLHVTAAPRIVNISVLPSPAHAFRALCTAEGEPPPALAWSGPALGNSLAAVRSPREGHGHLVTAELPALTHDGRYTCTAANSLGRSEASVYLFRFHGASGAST
The experiment in a line: BLI (Octet RED96), mAb on anti-human Fc sensors, S15-ECD monomer in solution, global fit. Here is the method:
Optimized KD experiments were performed on a ForteBio Octet RED96 instrument using anti-human Fc capture (AHC, 18-5060; ForteBio) sensors. Assay buffer was PBS containing 0.05% Tween-20 and regeneration buffer was 10 mM glycine (pH 1.5). First the antibodies were loaded at 1 μg/mL for 600 seconds. This was followed by a 60 second baseline step, a 300 second association step in S15-extra cellular domain (ECD) monomer, and finally a 1200 second dissociation step. The monomer concentrations ranged from 100 nM to 1.56 nM in a two-fold dilution series and a blank well was included. Data was processed using ForteBio's Data Analysis Software 7.0; a global fit was used, along with reference well subtraction. Reported values are the average of at least three independent octet runs.
On the technique in general: BLI is a label-free optical method that tracks binding on a fibre tip over time.

Positions count from the first letter of the chain named.

B1: 3H10 (antibody, V domains shown)
VH: EVQLQQSGAELVRPGASVKLSCTASGFNIKDYYMHWVKERPEQGLEWIGRIDPEDGDIEYDPKFQGKATMTADTSSNTAYLQFSSLTSEDTAVYYCVTDYDYDGGWFAYWGQGTLVTVSA
VL: QIILTQSPAIMSASPGEKVTMTCSASSSTSFMHWYQQKPGTSPKRWIFDTSKLASGVPGRFIGSGSGTSYSLTISTMEAEDAATYYCHQRSAYPWTFGGGTKLEIK
notes: Mouse anti-human Siglec-15 mAb
The term Kd denotes the free concentration of one partner at which half of the binding sites on the other are occupied at equilibrium, for simple one-to-one binding. In general, koff refers to a measure of how fast the partners let go of each other. The term kon denotes a measure of how fast the partners come together. In the case of B1, the Kd was found to be 0.6 nM, the koff was determined as 0.000178 s⁻¹ and the kon is 306000 M⁻¹ s⁻¹.

B2: 83B (antibody, V domains shown)
VH: EVQLQQSGPELVKPGASVKMSCKASGYTFTDYNMHWVKQSHGKSLEWIGYINPNNGGTSYNQKFKDKATLTVNKSSSTAFMELRSLASEDSAVYYCARSDWEDCWGQGTTLTVSS
VL: EIQMTQSPSSMSASLGDRITITCQATQDIVKNLNWYQQKPGKPPSFLIYYATELAEGVPSRFSGSGSGSDYSLTISNLESEDFADYYCLQFYEFPYTFGGGTKLEIK
notes: Mouse anti-human Siglec-15 mAb; also called NC83
Molecule B2 had a Kd of 1.19 nM, a koff of 0.000415 s⁻¹ and a kon of 353000 M⁻¹ s⁻¹.

B3: 80A (antibody, V domains shown)
VH: QVQLKQSGAELVRPGASVKLSCRASGYTFTDFYINWVKQRPGQGLEWIARIYPGSDETYYNEKFKDKVTLTAEKSSSTAYMQLSSLTSEDSAVYFCALWFFDVWGTGTTVTVSS
VL: DIVMTQSPSSLTVTAGEKVTMSCKSNQSLLNSGDQKNYLTWYQQKPGQPPKLLIYWASTRESGVPDRFTGSGSGTDFTLTISSVQAEDLAIYYCQNDYSYPLTFGAGTKLELK
notes: Mouse anti-human Siglec-15 mAb; also called NC80
Take B3: binding was characterised by a dissociation constant (Kd) of 0.5 nM, the koff is 0.000175 s⁻¹ and the kon was determined as 348000 M⁻¹ s⁻¹.

B4: 93B (antibody, V domains shown)
VH: QVQLKQSGAELVRPGASVKLSCKASGYTFTDYYINWVKQRPGQGLEWIARIYPGNGNTDYNEKFKDKATLTAEKSSTTAYIQLSSLTSEDSAVYFCCLWYFDVWGTGTTVTVSS
VL: B3 VL with N26S, D34N, S83N, A86P, I91V, Y100F, L102F, A106S, K109E, L112M
notes: Mouse anti-human Siglec-15 mAb; also called NC93
On to B4, for which binding was put at a Kd of 0.88 nM, the off-rate (koff) came to 0.000162 s⁻¹ and the kon was 185000 M⁻¹ s⁻¹.

B5: 10G9 (antibody, V domains shown)
VH: EVQLLETGGGLVQPGGSRGLSCEGSGFTFSDFWMSWVRQTPGKTLEWIGDINSDGSAVNYAPSIKDQFTIFRDNDKRTLHLQMINVRSEDTATYFCVRYDDYGYFDVWGTGTTVTVSS
VL: QAVVTQESALTTSPGETVTLTCRSSTGAVTTSNYANWVQEKPDHLFTGLIGGTNNRAPGVPARFSGSLIGDKAALTITGAQTEDEAIYFCALWYSNHWVFGGGTKLTVL
notes: as for B1
Molecule B5 gave a Kd of 0.55 nM, a koff of 0.000152 s⁻¹ and a kon of 277000 M⁻¹ s⁻¹.

B6: 8H8 (antibody, V domains shown)
VH: B5 VH with D31G, V58I, Q67R, R77N, H80Y, I84N
VL: B5 VL with T26S, S32G, Y34F
notes: as for B1
Molecule B6 yielded a Kd of 1.3 nM, a koff of 0.00027 s⁻¹ and a kon of 209000 M⁻¹ s⁻¹.

B7: 92A (antibody, V domains shown)
VH: DVQLQESGPGLVKFSQSLSLTCSVTGYSITSGYYWNWIRQFPGNKLEWMGYIRHDGSNNYNPSLKNRISITRDTSKNQFFLKLNSVITEDTATYYCVREIYDGSSGYFDVWGTGTTVTVSS
VL: QIVLTQSPAIMSASLGEEITLICSASSSVSYMHWYQQKSGTSPKLLIYRTSNLASGVPSRFSGSGSGTFYSLTISSVEAEDAADYYCHQWSSWTFGGGTQLEIK
notes: Mouse anti-human Siglec-15 mAb; also called NC92
Turning to B7, the Kd amounted to 1.42 nM, the koff amounted to 0.00014 s⁻¹ and the kon came out at 99000 M⁻¹ s⁻¹.

B8: 104B (antibody, V domains shown)
VH: QVQLQQSGPELARPGASVKLSCKASGYTFTSYGISWVKQRTGQGLEWIGQIHPRSGNTYYNENFKGKATLTAAKSSSTAYLELRSLTSEDSAVYFCAREGGPDYWGQGTTLTVSS
VL: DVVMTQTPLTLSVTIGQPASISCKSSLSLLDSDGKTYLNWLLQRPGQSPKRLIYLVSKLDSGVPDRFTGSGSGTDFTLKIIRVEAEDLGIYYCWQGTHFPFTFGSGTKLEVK
notes: Mouse anti-human Siglec-15 mAb; also called NC104
Take B8: the affinity, expressed as Kd, was 3.08 nM; the koff was determined as 5.9e-05 s⁻¹; the on-rate (kon) amounted to 23000 M⁻¹ s⁻¹.

B9: 99B (antibody, V domains shown)
VH: QVQLQQSGAELARPGASVKLSCKASGYTFTSDGITWLKQRTGQGLEWIGQIHPRSGNTYYNEKFKGKATLTADKSSSTAYMELRSLTSEDSAVYFCAKTGTGDYWGQGTTLTVSS
VL: not shown
notes: Mouse anti-human Siglec-15 mAb; also called NC99
As for B9, the Kd amounted to 3.86 nM, the koff was found to be 0.000102 s⁻¹ and the on-rate (kon) came out at 32000 M⁻¹ s⁻¹.

B10: 82B (antibody, V domains shown)
VH: B9 VH with L37V, E62G, K74R, A79T
VL: not shown
notes: Mouse anti-human Siglec-15 mAb; also called NC82
B10 returned a Kd of 4.84 nM, a koff of 0.0001 s⁻¹ and an on-rate constant (kon) of 23000 M⁻¹ s⁻¹.

B11: 1C3 (antibody, V domains shown)
VH: QVQLKQSGAELVKPGASVKISCKASGYIFTDYYVNWVKQRPGQGLEWIGKIGPGSVSIYYNEKFKGKATLTADKSSSTAYMQLSSLTSEDSAVYFCASYYYGFAYWGQGTLVTVSA
VL: DIVMTQAAPSVPVTPGESVSISCRSSKSLLHSNGNTYLYWFLQRPGQSPQLLIYRMSNLASGVPDRFGGSGSGTAFTLRISRVEAEDVGFYYCMQHLEYPYTFGGGTRLEIK
notes: as for B1
Molecule B11 had a Kd of 0.58 nM, a koff of 0.000174 s⁻¹ and a kon of 317000 M⁻¹ s⁻¹.

B12: 8C8 (antibody, V domains shown)
VH: B11 VH with I28T, G54E, N61S, G66A
VL: B11 VL with F90V, R108K
notes: as for B1
B12 returned a Kd of 0.89 nM, a koff of 0.00023 s⁻¹ and a kon of 292000 M⁻¹ s⁻¹.

B13: 105A (antibody, V domains shown)
VH: EVQLQQSGAELVRPGASVKLSCTASGFNIKDDYMHWVKQRPEQGLEWIGCIDPENGDIEYASRFQGKATMTADTSSNTAYLQLTSLTSADTAVYYCTTYVGFGYWGQGTLVTVSA
VL: DVLMTQTPLSLPVSLGDQASISCRSSQSIVHSNGNTYLEWYLQKPGQSPKLLIYKVSNRFSGVPDRFSGSGSGTDFTLKISRVEAEDLGVYYCFQGSHVPLTFGAGTKLELK
notes: Mouse anti-human Siglec-15 mAb; also called NC105
B13: binding was put at a Kd of 1.39 nM, the koff amounted to 0.000102 s⁻¹ and the kon was determined as 72000 M⁻¹ s⁻¹.

B14: 1C12 (antibody, V domains shown)
VH: EVQLVESGGGLVKPGGSLKLSCAASGFSFSDYGMHWVRQAPEKGLEWVAYISSGSSILYYADIVKGRFTISRDNAKNTLFLQMTSLRSEDTAMYYCARDHYHGNGSDYWGQGTTLTVSS
VL: B13 VL with L101W, A105G, L111I
notes: as for B1
B14 registered a Kd of 4.01 nM, a koff of 0.000423 s⁻¹ and a kon of 105000 M⁻¹ s⁻¹.

B15: 77A (antibody, V domains shown)
VH: B13 VH with I58T, R63K, M70I, A79V, T84S, A89E
VL: B13 VL with T7S, S28N, Q43K, V90M
notes: Mouse anti-human Siglec-15 mAb; also called NC77
B15 registered a Kd of 1.93 nM, a koff of 0.000143 s⁻¹ and a kon of 72000 M⁻¹ s⁻¹.

B16: 1B2 (antibody, V domains shown)
VH: B14 VH with L11F, S28T, L58I, I63T
VL: B13 VL with L101W, A105G, L111I
notes: as for B1
As for B16, the affinity, expressed as Kd, was 4.33 nM; the koff is 0.000609 s⁻¹; the kon is 143000 M⁻¹ s⁻¹.

B17: 6A (antibody, V domains shown)
VH: B13 VH with I58T, R63K, G66D, M70I, A72T, T84S, A89E, G103A, A115T
VL: B13 VL with K79R
notes: Mouse anti-human Siglec-15 mAb; also called NC6
The molecule B17 showed a Kd of 2.94 nM, a koff of 0.000211 s⁻¹ and a kon of 73000 M⁻¹ s⁻¹.
